Co-precipitation relative to wild-type eRF1, co-precipitation relative to wild-type eRF1, with high copy RLI1 and percent of parent data for two substances are collected here from PMC6511868.

The target of one assay is uS3-GFP (S. cerevisiae) (UniProt P05750). Nature of the assay: co-IP; yeast lysates; GFP-Trap_A beads (GFP-tagged baits) or IgG-Sepharose (TAP-tagged baits), 3 h at 4°C, western blot; wild type and the strains sup45-2, rat8-2, rat7ΔN shifted to 37°C for 1 h; also 0.5 mg/ml cycloheximide for 30 min; also high copy RLI1.
In assay [1] the target is uL23 as bait of the co-IP of Figure 1C (tag not told) (UniProt P04456). Put plainly: co-immunoprecipitation, western blot quantification. As to conditions: parent: 100.
Sequence of UniProt P04456 (P04456 whole entry): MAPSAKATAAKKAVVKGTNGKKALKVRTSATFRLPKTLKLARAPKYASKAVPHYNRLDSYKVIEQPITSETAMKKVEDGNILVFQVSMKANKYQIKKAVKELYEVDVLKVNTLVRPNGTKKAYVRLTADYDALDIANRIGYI

Sequence of UniProt P05750 (P05750 whole entry): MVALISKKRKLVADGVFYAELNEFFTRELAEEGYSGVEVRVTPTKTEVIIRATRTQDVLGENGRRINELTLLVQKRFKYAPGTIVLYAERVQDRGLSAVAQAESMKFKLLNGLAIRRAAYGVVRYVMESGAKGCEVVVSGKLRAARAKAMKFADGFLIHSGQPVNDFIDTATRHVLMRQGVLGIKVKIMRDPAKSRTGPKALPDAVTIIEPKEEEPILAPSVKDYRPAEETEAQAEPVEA

For the substance “mutated eRF1 protein sup45-2 (from UniProt P12385 1-437) (natural protein)”, in the assay with uS3-GFP (S. cerevisiae), the co-precipitation relative to wild-type eRF1 is 0.25 of wild type and the co-precipitation relative to wild-type eRF1, with high copy RLI1 was above 60%.
For “eukaryotic release factor 1 (eRF1) (from UniProt P12385) sup45-2”, the percent of parent in assay [1] worked out at 46%.
